According to patent US20210198377A1 (XDCEXPLORER SHANGHAI, published 2021):

T1: human TPBG-hFc (human, UniProt Q13641 32-355)
T1 construct: also called immunogen A; hFc tagged TPBG protein; not shown: The human IgG Fc fragment of the pCpC vector (Invitrogen V044-50) and any linker to it
T1 sequence: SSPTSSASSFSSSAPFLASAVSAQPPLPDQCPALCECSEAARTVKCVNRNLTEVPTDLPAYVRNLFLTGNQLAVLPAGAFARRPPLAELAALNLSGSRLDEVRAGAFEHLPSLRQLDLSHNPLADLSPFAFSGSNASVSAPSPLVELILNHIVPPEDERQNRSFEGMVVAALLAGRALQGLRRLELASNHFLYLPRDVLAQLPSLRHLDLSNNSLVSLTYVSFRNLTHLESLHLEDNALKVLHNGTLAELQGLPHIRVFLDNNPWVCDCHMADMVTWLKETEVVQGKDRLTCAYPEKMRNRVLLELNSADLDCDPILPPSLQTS

T2: biotinylated recombinant TPBG protein (Homo sapiens (Human), UniProt Q13641 32-355, Biotinylated; the number and positions of the biotin labels are not stated and the letters do not carry them.)
T2 sequence: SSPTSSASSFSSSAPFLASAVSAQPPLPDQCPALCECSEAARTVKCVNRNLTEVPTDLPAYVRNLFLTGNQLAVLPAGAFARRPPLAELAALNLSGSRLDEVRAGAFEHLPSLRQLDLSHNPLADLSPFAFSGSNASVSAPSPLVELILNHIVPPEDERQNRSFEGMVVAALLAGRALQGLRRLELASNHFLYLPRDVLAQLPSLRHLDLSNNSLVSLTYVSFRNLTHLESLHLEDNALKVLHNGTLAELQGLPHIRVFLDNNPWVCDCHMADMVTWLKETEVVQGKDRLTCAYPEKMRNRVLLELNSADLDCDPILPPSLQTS


Columns and labels:
human TPBG-hFc [1] = target: T1, human TPBG-hFc; assay: ELISA, coated human TPBG-hFc 1.0 ug/mL; antibody 2 nM
Protocol: (§1) The purified immunogen A (as for its method of preparation please refer to step 1 in Example 1) diluting with PBS to a final concentration of 1.0 μg/mL was aliquoted into a 96-well ELISA plate at 100 μL per well, and sealed with a parafilm and incubated at 4° C. overnight. The plate was washed twice with plate washing buffer (PBS containing 0.01% (v/v) Tween 20), and blocked with blocking buffer (PBS containing 0.01% (v/v) Tween 20 and 1% (w/w) BSA) at room temperature for 2 h. The blocking buffer was discarded, and 100 μL per well of the purified antibody obtained from Embodiment 2 was added. After incubating at 37° C. for 2 h, the plate was washed for three times with plate washing buffer (PBS containing 0.01% (v/v) Tween 20). HRP (horseradish peroxidase)-labeled secondary antibody (purchased from Sigma) was added and incubated at 37° C. for 2 h, and the plate was washed for three times using plate washing buffer (PBS containing 0.01% (v/v) Tween 20). 100 μL of TMB substrate was aliquoted into each well, incubated at room temperature for 30 min, and 100 μL of stop buffer (1.0N HCl) per well was subsequently added. A₄₅₀ₙₘ values were read using the ELISA plate reader (SpectraMax 384plus purchased from Molecular Device), and the results were shown in FIG. 6 and table 6. […] In Table 6 the IgG control herein is a mice IgG control, the data in the Table are OD₄₅₀ₘₙ values, and Blank means the OD₄₅₀ₘₙ value when there is only PBS buffer in the plate.

[2] = target: T2, biotinylated recombinant TPBG protein; assay: competitive ELISA; row antibody 5 ug/mL; competitor: coated 36A10D8B12
Protocol: (§2) The purified antibodies to be tested were diluted to 1 μg/mL using PBS, and coated with high-adsorption of 96-well microplates at […]. After overnight coating at 4[…], 250 μL of blocking buffer (PBS containing 0.01% (v/v) Tween20 and 1% (w/w) BSA) was added to block coating at room temperature for 1 h, and 0.05 μg/mL of biotinylated recombinant TPBG protein was added to each well. Meanwhile, 5 μg/mL final concentration of competitive antibodies, i.e. the purified antibodies obtained from Embodiment 2 with the clone number of 12B12C7C3, 5G4H10G5, 37H9C5G2, 39A11G5F2, 52C9E9F6, 28D4E6A9, 36A10D8B12, 99E12C7H1, 103E2E9C2 and 106D5G3D10 were added and incubated at 25-37° C. for 1-2 h. The plates were washed three times with plate-washing buffer (PBS containing 0.01% (v/v) Tween20) and HRP (horseradish peroxidase)-labeled streptavidin (purchased from Sigma) was added. After incubating at 37° C. for 0.5 h, the plates were washed three times with plate-washing buffer (PBS containing 0.01% (v/v) Tween20), and 100 μL of TMB substrate was added to each well and the plates were further incubated at room temperature for 30 min prior to adding 100 μL of stop buffer (1.0N HCl) to each well. A₄₅₀ₙₘ values were read using an ELISA microplate reader (SpectraMax 384plus purchased from Molecular Device) and results were shown in FIG. 6. The higher the values of the competition rate, the closer the antigen surface of the two antibodies are.

human TPBG-hFc [3] = target: T1, human TPBG-hFc; assay: ELISA, coated human TPBG-hFc 1.0 ug/mL; antibody 20 nM
Protocol: as §1

[4] = target: T2, biotinylated recombinant TPBG protein; assay: competitive ELISA; row antibody 5 ug/mL; competitor: coated 37H9C5G2
Protocol: as §2

[5] = target: T2, biotinylated recombinant TPBG protein; assay: competitive ELISA; row antibody 5 ug/mL; competitor: coated 39A11G5F2
Protocol: as §2

[6] = target: T2, biotinylated recombinant TPBG protein; assay: competitive ELISA; row antibody 5 ug/mL; competitor: coated 5G4H10G5
Protocol: as §2

human TPBG-hFc [7] = target: T1, human TPBG-hFc; assay: ELISA, coated human TPBG-hFc 1.0 ug/mL; antibody 0.02 nM
Protocol: as §1

[8] = target: T2, biotinylated recombinant TPBG protein; assay: competitive ELISA; row antibody 5 ug/mL; competitor: coated 52C9E9F6
Protocol: as §2

[9] = target: T2, biotinylated recombinant TPBG protein; assay: competitive ELISA; row antibody 5 ug/mL; competitor: coated 103E2E9C2
Protocol: as §2

human TPBG-hFc [10] = target: T1, human TPBG-hFc; assay: ELISA, coated human TPBG-hFc 1.0 ug/mL; antibody 0.2 nM
Protocol: as §1

[11] = target: T2, biotinylated recombinant TPBG protein; assay: competitive ELISA; row antibody 5 ug/mL; competitor: coated 99E12C7H1
Protocol: as §2

Binder | OD450nm (human TPBG-hFc [1]) [OD450nm] | competition rate [2] [%] | OD450nm (human TPBG-hFc [3]) [OD450nm] | competition rate [4] [%] | competition rate [5] [%] | competition rate [6] [%] | OD450nm (human TPBG-hFc [7]) [OD450nm] | competition rate [8] [%] | competition rate [9] [%] | OD450nm (human TPBG-hFc [10]) [OD450nm] | competition rate [11] [%]
103E2E9C2 (antibody, V domains shown, Mouse hybridoma antibody purified from culture supernatant; also called TPBG antibody; lead antibody) VH: EVQLQQSGPVLVKPGASVKMSCEASGYSFIDYYMSWVKQSRGRSLEWIGVFNPYSGEIIYNQKFKGKATLTVDKSSSTAYMELSSLTSEDSGVYSCARLRISYYAIDYWGQGTSVAVSS VL: ENVLTQSPAIMSASPGEKVTMTCRATSSVSSGHFHWYQQKSGASPKVWIYSTSNLASGVPARFSGSGSGTSFSLTISSVEAEDVATYFCQQYSGYPLTFGGGTKLEIK | 2.64 | 31 | 2.62 | 23 | 0 | 7 | 0.48 | 0 | 88 | 1.89 | 3
106D5G3D10 (antibody, V domains shown, Mouse hybridoma antibody purified from culture supernatant; also called TPBG antibody; lead antibody) VH: EVQLVESGGGLVKPGGSLKLSCAASGFTFSDYGMHWVRQAPEKGLEWVGYISSGTYVVYYADTVKGRFTISRDNAKNTLFLQMTSLRSEDTAIYYCSTYGSNPFDYWGQGTTLTVSS VL: QLVLTQSPAIMSASPGEKVTITCSATSSVSSMHWFQQKPVTSPKLWIYSTSNLASGVPTRFSGSGSGTSYSLTISRMEAEDAATYYCQQRSGYPPIFTFGSGTKLEIK | 2.81 | 1 | 2.82 | 3 | 1 | 40 | 0.56 | 0 | 0 | 2.36 | 11
12B12C7C3 (antibody, V domains shown, Mouse hybridoma antibody purified from culture supernatant; also called TPBG antibody; lead antibody) VH: DVQLVESGGGLVQPGGSRKLSCAASGFTFSNFGMHWVRQAPEKGLEWVAYISSGSTSFYYADTVKGRFTISRDNPKNTLFLQMTSLRSEDTAMYYCSRTNSLLRGFFDAWGAGTTVTVSS VL: DIVLTQSPASLAVSLGQRATISCRASQSVSSSSYTYLHWYQQKPGQPPKLLIKSASNLESGVPARFSGTGSGTDFTLNIHPVEEEDTATYYCQHSWEIPLTFGAGTKLELK | 2.84 | 3 | 2.83 | 1 | 0 | 47 | 0.29 | 4 | 0 | 1.67 | 25
